This is an account of results in publication PMC6289461, “Mek1 coordinates meiotic progression with DNA break repair by directly phosphorylating and inhibiting the yeast pachytene exit regulator Ndt80”.

The series deals with T1, 6xHis-Ndt80 WT DBD (Saccharomyces cerevisiae, UniProt P38830 1-340).
T1 sequence: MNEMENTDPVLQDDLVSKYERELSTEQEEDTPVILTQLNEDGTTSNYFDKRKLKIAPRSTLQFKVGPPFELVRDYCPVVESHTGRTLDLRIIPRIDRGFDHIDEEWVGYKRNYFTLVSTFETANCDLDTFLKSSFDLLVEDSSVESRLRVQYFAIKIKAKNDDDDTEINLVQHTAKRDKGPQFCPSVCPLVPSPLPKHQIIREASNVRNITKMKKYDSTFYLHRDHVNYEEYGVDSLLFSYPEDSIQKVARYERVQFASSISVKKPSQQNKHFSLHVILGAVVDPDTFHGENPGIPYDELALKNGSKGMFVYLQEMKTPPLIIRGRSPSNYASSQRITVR
In words: EMSA; 50 nM DBD, 50 nM duplex; highest non-specific binding of the three DBDs; EMSA: 10 mM Tris-HCl pH 7.5, 40 mM NaCl, 4 mM MgCl2, 6% glycerol, 10 mg/ml BSA, 10 ug/ml sonicated salmon sperm DNA; 20 ul, room temperature, 30 min; 6% PAGE in 0.5X TBE. Particulars: protein: recombinant; tags: N-terminal 6xHis (pET-28a); label: 5' Cy5 on strand 1; blunt. In general terms: A gel shift assay detects complexes by their altered migration in electrophoresis.

B1: Cy5-Scr duplex (dsDNA)
DNA 1: ATTGACGCGGCTTCATCTCACGTATCATT
DNA 2: AATGATACGTGAGATGAAGCCGCGTCAAT
With B1, the binding result is “binds”.
